Experiment [1] has as its target Truncated human H-ras (H-Ras^1-166), wild type (human) (UniProt P01112).
Experiment [2] has as its target Glutathiolated H-Ras^1-166 (Ras^SSG) (human) (UniProt P01112).

Drawing on paper PMC3985386, this text covers rate of MANT-GDP dissociation from 1 uM Ras with SOS^cat for one substance.

In the case of “Minimal catalytic domain of Son of Sevenless (SOS^cat) (domain or fragment)”, the rate of MANT-GDP dissociation from 1 uM Ras with SOS^cat at a 1:1 ratio, 25°C in experiment [1] is 0.00202 s⁻¹; in experiment [2] it was 0.00185 s⁻¹.
